Source: paper PMC5033319

Experiment: recombinant expression in Sf9, not detailed
Conditions: glycan lost; control: initial domain III preparation, sites intact

In the case of “EGFR domain III (EGFRD3): N328D and N420D”, the “other: solubility” value is reported as “increases”.
